Reference: PMC2115427

Molecular target: urokinase plasminogen activator receptor (uPAR) of U937 cells (human (endogenous in U937)) (UniProt Q03405)
Sequence of UniProt Q03405 (Q03405 23-305): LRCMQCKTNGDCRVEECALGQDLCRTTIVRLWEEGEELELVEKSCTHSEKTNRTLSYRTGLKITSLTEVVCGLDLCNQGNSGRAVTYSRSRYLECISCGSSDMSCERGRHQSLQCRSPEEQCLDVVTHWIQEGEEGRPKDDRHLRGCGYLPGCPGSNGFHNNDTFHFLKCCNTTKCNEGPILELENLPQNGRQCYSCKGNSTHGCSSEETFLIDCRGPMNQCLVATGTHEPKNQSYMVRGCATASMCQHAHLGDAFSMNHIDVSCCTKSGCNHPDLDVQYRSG

A half-life of dissociation of 3 h was found for “human urinary urokinase of high Mr (uPA) (enzyme)” in this work.
